According to the Immune Epitope Database (IEDB):

Tests used:
HLA-A*02:01 = assay: IEDB peptide-MHC binding, purified MHC/competitive/radioactivity; filed as Kd, often an IC50 or EC50 that approximates it; ≥ and ≤ were set here for values at or beyond the usual limits of such assays
HLA-A*03:01 = assay: IEDB peptide-MHC binding, purified MHC/competitive/fluorescence; filed as Kd, often an IC50 or EC50 that approximates it; ≥ and ≤ were set here for values at or beyond the usual limits of such assays
HLA-B*53:01 = assay: IEDB peptide-MHC binding, purified MHC/competitive/radioactivity; filed as Kd, often an IC50 or EC50 that approximates it; ≥ and ≤ were set here for values at or beyond the usual limits of such assays
HLA-B*35:01 = assay: as above
HLA-B*54:01 = assay: as above
HLA-B*51:01 = assay: as above
HLA-B*07:02 = assay: as above
HLA-B*15:01 = assay: as above
HLA-B*08:01 = assay: as above
HLA-B*40:01 = assay: as above
HLA-B*44:03 = assay: as above
HLA-B*44:02 = assay: as above
HLA-A*32:01 = assay: as above
HLA-A*26:01 = assay: as above
HLA-A*29:02 = assay: as above; settings: source organism: Mammarenavirus choriomeningitidis
HLA-A*30:01 = assay: as above; settings: source organism: Mammarenavirus choriomeningitidis
HLA-A*01:01 = assay: as above
HLA-A*30:02 = assay: as above
HLA-A*68:01 = assay: as above; settings: source organism: Dengue virus 3 Martinique/1243/1999
[1] = source organism: Vaccinia virus WR
[2] = source organism: SARS coronavirus Tor2
[3] = source organism: Dengue virus 2 Jamaica/1409/1983
[4] = source organism: Dengue virus 1 Singapore/S275/1990
[5] = source organism: Dengue virus 1 Brazil/97-11/1997
[6] = source organism: Dengue virus 4 Philippines/H241/1956
[7] = source organism: Dengue virus 3 Martinique/1243/1999
[8] = source organism: Mammarenavirus choriomeningitidis

Q: How did the Kd (HLA-A*02:01; source organism: Triticum aestivum) turn out when VLQQSTYQL was run?
A: 58 nM

Q: For LLLKERGLK, which Kd (HLA-A*03:01; source organism: Vibrio vulnificus CMCP6) is on record?
A: 29.6 nM

Q: What does the source list for IPSLFIESSI?
A: Kd (HLA-B*53:01; [1]): 1980 nM; Kd (HLA-B*35:01; [1]): ≥ 69900 nM; Kd (HLA-B*54:01; [1]): 429 nM; Kd (HLA-B*51:01; [1]): 1900 nM; Kd (HLA-B*07:02; [1]): 680 nM

Q: Which Kd (HLA-B*53:01; [2]) does the source give for LPIDKCSRII here?
A: 603 nM

Q: What about the Kd (HLA-B*35:01; [2]) of the same sequence?
A: 2550 nM

Q: What about the Kd (HLA-B*54:01; [2]) of the same sequence?
A: 1140 nM

Q: And the Kd (HLA-B*51:01; [2])?
A: 681 nM

Q: What about the Kd (HLA-B*07:02; [2]) of the same sequence?
A: 1400 nM

Q: How did the Kd (HLA-A*02:01; source organism: Homo sapiens) turn out when FLDEFMEAV was run?
A: 8.3 nM

Q: How did the Kd (HLA-B*15:01; [3]) turn out when TQVPFCSHHF was run?
A: 2.37 nM

Q: With EKEENLVNSL as the sequence, how does the Kd (HLA-B*08:01; [3]) read?
A: 1840 nM

Q: For YLMLLFAAM, which Kd (HLA-B*08:01; [1]) is on record?
A: 138 nM

Q: NVFKAMETF was tested. Which Kd (HLA-B*15:01; [1]) did it give?
A: 22.8 nM

Q: Which Kd (HLA-B*40:01; [4]) does the source give for SEGIFSPSEL here?
A: 5.6 nM

Q: What about the Kd (HLA-B*44:03; [4]) of the same sequence?
A: 77.5 nM

Q: What about the Kd (HLA-B*44:02; [4]) of the same sequence?
A: 66.3 nM

Q: For QIAMTDTTPF, which Kd (HLA-B*15:01; [5]) is on record?
A: 7.04 nM

Q: What does the source list for GEMCEDTVTY?
A: Kd (HLA-B*40:01; [6]): 918 nM; Kd (HLA-B*44:03; [6]): 104 nM; Kd (HLA-B*44:02; [6]): 35.4 nM

Q: Which results are given for MPYVFTLLF?
A: Kd (HLA-B*53:01; [2]): 0.124 nM; Kd (HLA-B*35:01; [2]): 0.59 nM; Kd (HLA-B*54:01; [2]): 30.6 nM; Kd (HLA-B*51:01; [2]): 4.07 nM; Kd (HLA-B*07:02; [2]): 109 nM

Q: With TTWALCESI as the sequence, how does the Kd (HLA-A*32:01; [5]) read?
A: 293 nM

Q: Which results are given for HINKLFSVF?
A: Kd (HLA-B*15:01; [1]): 0.915 nM; Kd (HLA-A*32:01; [1]): 907 nM

Q: How did the Kd (HLA-B*15:01; [7]) turn out when QMANGIALGL was run?
A: 191 nM

Q: Which Kd (HLA-B*08:01; source organism: Cowpox virus) does the source give for SKKTRISDL here?
A: 2.76 nM

Q: Which results are given for SMFTLRHII?
A: Kd (HLA-A*32:01; [1]): 82.8 nM; Kd (HLA-B*08:01; [1]): 1.81 nM

Q: With LAKKSYVVF as the sequence, how does the Kd (HLA-B*15:01; source organism: Vaccinia virus Copenhagen) read?
A: 97.3 nM

Q: SAVPVDWVPT was tested. Which Kd (HLA-A*32:01; [5]) did it give?
A: 18600 nM

Q: How did the Kd (HLA-B*40:01; source organism: Dengue virus 2 Peru/IQT2913/1996) turn out when WELVDKERNL was run?
A: 222 nM

Q: Which Kd (HLA-B*08:01; [5]) does the source give for LMTGTLAVFL here?
A: 1700 nM

Q: CLLNYSGLK was tested. Which Kd (HLA-A*03:01; source organism: Escherichia coli O139:H28 str. E24377A) did it give?
A: 27.8 nM

Q: Which Kd (HLA-A*32:01; [5]) does the source give for EVKTCIWPKS here?
A: ≥ 49500 nM

Q: With SLLRKFLYC as the sequence, how does the Kd (HLA-B*08:01; [1]) read?
A: 701 nM

Q: SLGCKPLTM was tested. Which Kd (HLA-B*08:01; [4]) did it give?
A: 169 nM

Q: For SLQQRLEDL, which Kd (HLA-B*08:01; [1]) is on record?
A: 158 nM

Q: PNERRAWNFL was tested. Which Kd (HLA-A*32:01; [6]) did it give?
A: ≥ 25300 nM

Q: GVFPVSIPI was tested. Which Kd (HLA-A*32:01; [3]) did it give?
A: 44.5 nM

Q: For LVRHYFRYI, which Kd (HLA-B*15:01; [1]) is on record?
A: 158 nM

Q: Which results are given for TTDVKAAVI?
A: Kd (HLA-A*26:01; [8]): ≥ 77900 nM; Kd (HLA-A*29:02): 10400 nM; Kd (HLA-A*30:01): ≥ 72200 nM; Kd (HLA-A*01:01; [8]): 955 nM; Kd (HLA-A*30:02; [8]): ≥ 23700 nM; Kd (HLA-A*32:01; [8]): ≥ 77800 nM

Q: How did the Kd (HLA-A*32:01; [1]) turn out when SLSAVSVHI was run?
A: 33.9 nM

Q: How did the Kd (HLA-B*40:01; [7]) turn out when EEMFKKRNL was run?
A: 6310 nM

Q: And the Kd (HLA-B*44:03; [7])?
A: 483 nM

Q: And the Kd (HLA-B*44:02; [7])?
A: 51.2 nM

Q: How did the Kd (HLA-A*02:01; source organism: HIV-1 M:B_MN) turn out when RVIEVLQRA was run?
A: 25 nM

Q: How did the Kd (HLA-A*32:01; [1]) turn out when KLFNIAQRI was run?
A: 1.58 nM

Q: For MTIDLDPVIY, which Kd (HLA-A*68:01) is on record?
A: 11.9 nM

Q: And the Kd (HLA-A*26:01; [7])?
A: 5.59 nM

Q: What about the Kd (HLA-B*15:01; [7]) of the same sequence?
A: 5.32 nM

Q: And the Kd (HLA-B*35:01; [7])?
A: 24.8 nM

Q: What about the Kd (HLA-A*01:01; [7]) of the same sequence?
A: 2990 nM

Q: And the Kd (HLA-A*30:02; [7])?
A: ≥ 25400 nM

Q: Which Kd (HLA-B*08:01; [1]) does the source give for FRRLRKGSI here?
A: 3.01 nM

Q: For WELVDRERNL, which Kd (HLA-B*40:01; [3]) is on record?
A: 116 nM

Q: With LSASVFYRG as the sequence, how does the Kd (HLA-B*15:01; [1]) read?
A: 295 nM

Q: For KIWGRKSWPL, which Kd (HLA-B*08:01; [4]) is on record?
A: 382 nM
